Laboratory results published in patent US20130052663A1 (ADDEX PHARMA SA, priority 2010, published 2013).

Legend:
[1] = molecular target: chimeric receptor TNFR1(fl)-PDGFR(cd): full length human TNFR1 fused to the cytoplasmic tyrosine kinase domain of mouse PDGFR (human TNFR1 / mouse PDGFR); assay: cell-based or functional assay
Target sequence (chain, as listed by the source mutant limits assumed): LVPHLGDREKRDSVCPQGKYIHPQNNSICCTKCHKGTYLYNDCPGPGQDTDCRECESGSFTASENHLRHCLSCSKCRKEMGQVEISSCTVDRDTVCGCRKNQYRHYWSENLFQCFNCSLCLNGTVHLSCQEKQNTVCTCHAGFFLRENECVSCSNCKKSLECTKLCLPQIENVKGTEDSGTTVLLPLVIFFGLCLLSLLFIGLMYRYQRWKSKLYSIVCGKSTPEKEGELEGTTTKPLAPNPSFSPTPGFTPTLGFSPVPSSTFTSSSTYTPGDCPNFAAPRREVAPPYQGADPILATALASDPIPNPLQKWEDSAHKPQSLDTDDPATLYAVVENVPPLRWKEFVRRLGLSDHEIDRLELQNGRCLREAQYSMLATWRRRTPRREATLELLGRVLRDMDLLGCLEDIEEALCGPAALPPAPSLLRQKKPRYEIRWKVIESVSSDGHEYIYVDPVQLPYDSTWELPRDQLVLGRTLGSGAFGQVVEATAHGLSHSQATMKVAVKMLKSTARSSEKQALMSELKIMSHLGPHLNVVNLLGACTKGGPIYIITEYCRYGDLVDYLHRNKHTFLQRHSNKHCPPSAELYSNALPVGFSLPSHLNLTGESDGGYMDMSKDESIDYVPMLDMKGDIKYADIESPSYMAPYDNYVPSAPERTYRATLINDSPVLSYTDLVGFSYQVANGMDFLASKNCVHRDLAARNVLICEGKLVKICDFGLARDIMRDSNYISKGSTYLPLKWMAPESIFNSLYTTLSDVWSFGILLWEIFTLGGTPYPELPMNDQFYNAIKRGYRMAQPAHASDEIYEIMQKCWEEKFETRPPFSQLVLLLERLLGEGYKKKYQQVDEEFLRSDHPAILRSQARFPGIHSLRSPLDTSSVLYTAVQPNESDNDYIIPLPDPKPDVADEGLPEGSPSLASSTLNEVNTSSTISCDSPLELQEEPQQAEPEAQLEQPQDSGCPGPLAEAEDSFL

[2] = molecular target: T1, chimeric TNFR1-PDGFR Receptor (Homo sapiens, UniProt P19438); assay: Ca2+-dependent aequorin luminescence in HEK293T Aequorin cells expressing chimeric TNFR1(fl)-PDGFR(cd) receptor, HTS setting; format: cell-based, human TNFR1 / mouse PDGFR; conditions: for Effect on TNF-dependent intracellular calcium increase (luminescence AUC): 1 μM inhibitor, 3 ng/ml TNF
T1 construct: yielding the expression construct pcDNA3.1 hygro TNFR1(fl)-PDGFR(cd) vector; mouse PDGFRb cytoplasmic tyrosine kinase domain (fusion partner); expressed in transfected cells; host or cells: HEK293T cells stably expressing apoaequorin
T1 sequence (P19438 with tags, fused parts or gaps): as the sequence (chain, as listed by the source mutant limits assumed) above
Text: HEK293T stably expressing Apoaequorin were generated using standard cloning techniques. The HEK293T cells expressing Apoaequorin (“Aequorin cells”) were then further transfected as described in Examples 1-3 so as to express the chimeric receptors 1-3 as listed in Table 3.
In particular, the HEK293T Apoaequorin cells were transfected with pcDNA3.1 hygro TNFR1-fl-PDGFR-cd vector as prepared in Example 1 using Optifect™ Transfection Reagent (Invitrogen), according to the manufacturer's protocol.
HEK293T cells expressing Apoaequorin and the chimeric receptor (Example 4) were plated in 384-well plates at a concentration of 12500 cells per well in a final volume of 50 μl. The next day culture supernatants were removed and 25 μl labeling buffer (DMEM:F12 plus 0.1% BSA) containing 2.5 μM Coelenterazine h (Dalton Pharma services), was added. Cells were incubated at room temperature for 6 hrs. A FDSS7000 reader from Hamamatsu (Japan) was used to examine intracellular calcium levels. […] The instrument features include detection with a camera of fluorescence or luminescence and automatically converts fluorescence or luminescence signals into numeric data. This digital data is then used to determine the concentration of calcium inside the analyzed cells. The information is automatically analyzed in terms of a positive, negative or null effect of each test compound being examined. This system allowed differences between untreated and treated cells to be measured, for example by measuring the calcium flux in cells.
After a baseline reading of 10 seconds, cells were incubated for 3 minutes with different doses of inhibitors or buffer controls. […] The results were analyzed using the FDSS analysis software from Hamamatsu. […]
HEK293T Aequorin cells expressing fusion proteins as described in Example 4 were treated or not treated with 3 ng/ml of TNF and 300 ng/ml of an anti-TNFR1 antagonist monoclonal antibody (MAB225, R&D Systems) was added to half of the samples exposed to TNF. Following 10 minutes of exposure after TNF addition, the area under the curve was determined for each sample. […]

EC50, Ca2+-dependent aequorin luminescence, AUC over 10 minutes [1] [ng/mL]	EC50, Ca2+-dependent aequorin luminescence, Max-Min [1] [ng/mL]	EC80, Ca2+-dependent aequorin luminescence, AUC over 10 minutes [1] [ng/mL]	EC80, Ca2+-dependent aequorin luminescence, Max-Min [1] [ng/mL]	Effect on TNF-dependent intracellular calcium increase (luminescence AUC) ([2]; listed as PDGFR tyrosine kinase inhibitor)	Inhibitory efficacy (dose response), compared with full-length PDGFR cells ([2]; inhibitor 3 μM to 0.45 nM, cells exposed to TNF)	Compound	Effect on TNF-dependent intracellular calcium increase (luminescence AUC) [2]
1.27	1.06	2.9	3	–	–	Tumor necrosis factor (TNF) (ligand)	–
–	–	–	–	signalling is blocked	equal inhibitory efficacy	COc1cc2ncnc(N3CCN(C(=O)Nc4ccc(Oc5ccccc5)cc4)CC3)c2cc1OC [PDGFR Tyrosine Kinase Inhibitor III, 4-(6,7-Dimethoxy-4-quinazolinyl)-N-(4-phenoxyphenyl)-1-piperazinecarboxamide]	prevented the detection of intracellular calcium increase
